Experimental data published in article PMC3117843.

Key:
[1] = molecular target: HCV envelope glycoproteins E1 and E2 of genotype 3a on HCV pseudoparticles (Hepatitis C virus genotype 3a)
[2] = molecular target: HCV envelope glycoproteins E1 and E2 on HCV genotype 3a virus from patients' serum (Hepatitis C virus genotype 3a)

B1: Galanthus nivalis agglutinin (natural protein)
chain: SCLSDNILYSGETLSTGEFLNYGSFVFIMQEDCNLVLYDVDKPIWATNTGGLSRSCFLSMQTDGNLVVYNPSNKPIWASNTGGQNGNYVCILQKDRNVVIYGTDRWATG
[1]
  inhibition of HCVpp entry into Huh-7 cells, concentration of GNA for 50% reduction (Figure 3a and 3b): 1 µg
[2]
  infection of Huh-7 cells by HCV 3a virus pre-incubated with GNA, HCV RNA by quantitative RT-PCR, EC50 (Figure 4): 1 µg
  infection of Huh-7 cells by HCV 3a virus pre-incubated with GNA, HCV RNA by quantitative RT-PCR, EC90 (Figure 4): 5 µg
